*1 amine or outer side, *2 acyl side, *3 side chain or, on linkers, in order; H or OH if unused. Where no end group is shown, it is not given here. Side-chain parts run from the residue outwards. [ ]: non-standard residue; d: D form. The star is where a group is joined. C18 diacid = O=C(O)CCCCCCCCCCCCCCCCC(=O)*; γGlu = O=C(O)[C@H](CCC(=O)[*:2])N[*:1]; AEEA = NCCOCCOCC(=O)O; Aib = CC(C)(N)C(=O)O; Sar = CNCC(=O)O
T1: human GIP receptor (human, UniProt P48546 22-466)
T1 sequence (looked up): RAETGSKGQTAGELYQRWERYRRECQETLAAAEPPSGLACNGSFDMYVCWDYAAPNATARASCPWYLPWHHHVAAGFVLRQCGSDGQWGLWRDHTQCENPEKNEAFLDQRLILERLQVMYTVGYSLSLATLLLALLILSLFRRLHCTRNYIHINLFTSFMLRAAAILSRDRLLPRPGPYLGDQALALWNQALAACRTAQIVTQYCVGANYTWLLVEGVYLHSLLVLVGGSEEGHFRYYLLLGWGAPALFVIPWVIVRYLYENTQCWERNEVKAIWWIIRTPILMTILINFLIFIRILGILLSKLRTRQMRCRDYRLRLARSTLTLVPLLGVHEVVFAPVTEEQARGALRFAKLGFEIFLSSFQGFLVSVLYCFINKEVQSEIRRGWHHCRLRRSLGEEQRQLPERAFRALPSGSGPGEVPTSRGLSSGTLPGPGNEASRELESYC

B1: SEQ ID NO: 9 (peptide)
peptide: Y[Aib]EGTFISDLSI[Aib]K([AEEA-AEEA-γGlu-C18 diacid])DRIHQEEFIEWLLAQGPSSGAPPPS-NH2
modifications: N-terminus assumed
SMILES: CC[C@H](C)[C@H](NC(=O)[C@H](Cc1ccccc1)NC(=O)[C@H](CCC(=O)O)NC(=O)[C@H](CCC(=O)O)NC(=O)[C@H](CCC(N)=O)NC(=O)[C@H](Cc1c[nH]cn1)NC(=O)[C@@H](NC(=O)[C@H](CCCNC(=N)N)NC(=O)[C@H](CC(=O)O)NC(=O)[C@H](CCCCNC(=O)COCCOCCNC(=O)COCCOCCNC(=O)CC[C@H](NC(=O)CCCCCCCCCCCCCCCCC(=O)O)C(=O)O)NC(=O)C(C)(C)NC(=O)[C@@H](NC(=O)[C@H](CO)NC(=O)[C@H](CC(C)C)NC(=O)[C@H](CC(=O)O)NC(=O)[C@H](CO)NC(=O)[C@@H](NC(=O)[C@H](Cc1ccccc1)NC(=O)[C@@H](NC(=O)CNC(=O)[C@H](CCC(=O)O)NC(=O)C(C)(C)NC(=O)[C@@H](N)Cc1ccc(O)cc1)[C@@H](C)O)[C@@H](C)CC)[C@@H](C)CC)[C@@H](C)CC)C(=O)N[C@@H](CCC(=O)O)C(=O)N[C@@H](Cc1c[nH]c2ccccc12)C(=O)N[C@@H](CC(C)C)C(=O)N[C@@H](CC(C)C)C(=O)N[C@@H](C)C(=O)N[C@@H](CCC(N)=O)C(=O)NCC(=O)N1CCC[C@H]1C(=O)N[C@@H](CO)C(=O)N[C@@H](CO)C(=O)NCC(=O)N[C@@H](C)C(=O)N1CCC[C@H]1C(=O)N1CCC[C@H]1C(=O)N1CCC[C@H]1C(=O)N[C@@H](CO)C(N)=O
notes: Exendin-4 derived synthetic lipidated peptide of formula I
B2: SEQ ID NO: 6 (peptide)
peptide: Y[Aib]EGTFISDLSI[Aib]K([Sar-Sar-Sar-γGlu-C18 diacid])DRIHQ[Aib]EFIEWLLAQGPSSGAPPPS-NH2
modifications: N-terminus assumed
SMILES: CC[C@H](C)[C@H](NC(=O)[C@H](CCCNC(=N)N)NC(=O)[C@H](CC(=O)O)NC(=O)[C@H](CCCCNC(=O)CN(C)C(=O)CN(C)C(=O)CN(C)C(=O)CC[C@H](NC(=O)CCCCCCCCCCCCCCCCC(=O)O)C(=O)O)NC(=O)C(C)(C)NC(=O)[C@@H](NC(=O)[C@H](CO)NC(=O)[C@H](CC(C)C)NC(=O)[C@H](CC(=O)O)NC(=O)[C@H](CO)NC(=O)[C@@H](NC(=O)[C@H](Cc1ccccc1)NC(=O)[C@@H](NC(=O)CNC(=O)[C@H](CCC(=O)O)NC(=O)C(C)(C)NC(=O)[C@@H](N)Cc1ccc(O)cc1)[C@@H](C)O)[C@@H](C)CC)[C@@H](C)CC)C(=O)N[C@@H](Cc1c[nH]cn1)C(=O)N[C@@H](CCC(N)=O)C(=O)NC(C)(C)C(=O)N[C@@H](CCC(=O)O)C(=O)N[C@@H](Cc1ccccc1)C(=O)N[C@H](C(=O)N[C@@H](CCC(=O)O)C(=O)N[C@@H](Cc1c[nH]c2ccccc12)C(=O)N[C@@H](CC(C)C)C(=O)N[C@@H](CC(C)C)C(=O)N[C@@H](C)C(=O)N[C@@H](CCC(N)=O)C(=O)NCC(=O)N1CCC[C@H]1C(=O)N[C@@H](CO)C(=O)N[C@@H](CO)C(=O)NCC(=O)N[C@@H](C)C(=O)N1CCC[C@H]1C(=O)N1CCC[C@H]1C(=O)N1CCC[C@H]1C(=O)N[C@@H](CO)C(N)=O)[C@@H](C)CC
notes: as for B1

What was measured:
[1] = in vivo; cited from earlier work
human GIP receptor [2] = target: T1, human GIP receptor; test: cell-based or functional assay
human GIP receptor [3] = target: T1, human GIP receptor; test: displacement of [125I]GIP from hGIPR HEK-293 membranes, SPA
human GLP-1 receptor [4] = target: T2, human GLP-1 receptor (human, UniProt P43220 24-463); test: cell-based or functional assay
human GIP receptor [5] = target: T1, human GIP receptor; test: cell-based or functional assay; remark: listed apart in the source
human GLP-1 receptor [6] = target: T2, human GLP-1 receptor; test: displacement of [125I]GLP-1 from hGLP-1R HEK-293 membranes, SPA

Row | Molecule | half-life [1] [min] | hGIPR EC50, cAMP in human adipocytes (human GIP receptor [2]) [nM] | hGIPR Emax, cAMP in human adipocytes (human GIP receptor [2]) [%] | IC50 (human GIP receptor [3]) [nM] | EC50 hGLP-1R 0% HSA, cAMP in HEK-293 cells (human GLP-1 receptor [4]) [nM] | EC50 hGIPR 0% HSA, cAMP in HEK-293 cells (human GIP receptor [5]) [nM] | EC50 hGIPR 0.1% HSA, cAMP in HEK-293 cells (human GIP receptor [5]) [nM] | IC50 (human GLP-1 receptor [6]) [nM]
1 | CC[C@H](C)[C@H](NC(=O)[C@H](CO)NC(=O)[C@H](Cc1ccc(O)cc1)NC(=O)[C@H](CC(=O)O)NC(=O)[C@H](CO)NC(=O)[C@@H](NC(=O)[C@H](Cc1ccccc1)NC(=O)[C@@H](NC(=O)CNC(=O)[C@H](CCC(=O)O)NC(=O)[C@H](C)NC(=O)[C@@H](N)Cc1ccc(O)cc1)[C@@H](C)O)[C@@H](C)CC)C(=O)N[C@@H](C)C(=O)N[C@@H](CCSC)C(=O)N[C@@H](CC(=O)O)C(=O)N[C@@H](CCCCN)C(=O)N[C@H](C(=O)N[C@@H](Cc1c[nH]cn1)C(=O)N[C@@H](CCC(N)=O)C(=O)N[C@@H](CCC(N)=O)C(=O)N[C@@H](CC(=O)O)C(=O)N[C@@H](Cc1ccccc1)C(=O)N[C@H](C(=O)N[C@@H](CC(N)=O)C(=O)N[C@@H](Cc1c[nH]c2ccccc12)C(=O)N[C@@H](CC(C)C)C(=O)N[C@@H](CC(C)C)C(=O)N[C@@H](C)C(=O)N[C@@H](CCC(N)=O)C(=O)N[C@@H](CCCCN)C(=O)NCC(=O)N[C@@H](CCCCN)C(=O)N[C@@H](CCCCN)C(=O)N[C@@H](CC(N)=O)C(=O)N[C@@H](CC(=O)O)C(=O)N[C@@H](Cc1c[nH]c2ccccc12)C(=O)N[C@@H](CCCCN)C(=O)N[C@@H](Cc1c[nH]cn1)C(=O)N[C@@H](CC(N)=O)C(=O)N[C@H](C(=O)N[C@H](C(=O)N[C@@H](CCC(N)=O)C(=O)O)[C@@H](C)O)[C@@H](C)CC)C(C)C)[C@@H](C)CC [SEQ ID NO: 1, GIP (glucose-dependent insulinotropic polypeptide)] | 2 |  |  |  |  |  |  | 
2 | B1 |  | 1.4 | 125 | 0.9 | > 10 | 0.00019 | 0.00194 | 307
3 | B2 |  | 0.3 | 112 |  | > 10 | 0.00017 | 0.00105 | 173

Source: patent US20230103631A1, “PEPTIDES AS SELECTIVE GIP RECEPTOR AGONISTS” (Sanofi, priority 2020, published 2023)
